B1: 4190326: IMAGE clone protein: Lyn, Yamaguchi sarcoma viral (vyes1) oncogene homolog (protein, UniProt P25911 2-512, looked up)
Tyrosine-protein kinase Lyn: GCIKSKRKDNLNDDEVDSKTQPVRNTDRTIYVRDPTSNKQQRPVPEFHLLPGQRFQTKDPEEQGDIVVALYPYDGIHPDDLSFKKGEKMKVLEEHGEWWKAKSLSSKREGFIPSNYVAKVNTLETEEWFFKDITRKDAERQLLAPGNSAGAFLIRESETLKGSFSLSVRDYDPMHGDVIKHYKIRSLDNGGYYISPRITFPCISDMIKHYQKQSDGLCRRLEKACISPKPQKPWDKDAWEIPRESIKLVKKLGAGQFGEVWMGYYNNSTKVAVKTLKPGTMSVQAFLEEANLMKTLQHDKLVRLYAVVTKEEPIYIITEFMAKGSLLDFLKSDEGGKVLLPKLIDFSAQIAEGMAYIERKNYIHRDLRAANVLVSESLMCKIADFGLARVIEDNEYTAREGAKFPIKWTAPEAINFGCFTIKSDVWSFGILLYEIVTYGKIPYPGRTNADVMSALSQGYRMPRMENCPDELYDIMKMCWKEKAEERPTFDYLQSVLDDFYTATEGQYQQQP
B2: 4013934: IMAGE clone protein: Ephb4, Eph receptor B4 (protein, UniProt P54761 16-987, looked up)
Ephrin type-B receptor 4: LEETLLNTKLETADLKWVTYPQAEGQWEELSGLDEEQHSVRTYEVCDMKRPGGQAHWLRTGWVPRRGAVHVYATIRFTMMECLSLPRASRSCKETFTVFYYESEADTATAHTPAWMENPYIKVDTVAAEHLTRKRPGAEATGKVNIKTLRLGPLSKAGFYLAFQDQGACMALLSLHLFYKKCSWLITNLTYFPETVPRELVVPVAGSCVANAVPTANPSPSLYCREDGQWAEQQVTGCSCAPGYEAAESNKVCRACGQGTFKPQIGDESCLPCPANSHSNNIGSPVCLCRIGYYRARSDPRSSPCTTPPSAPRSVVHHLNGSTLRLEWSAPLESGGREDLTYAVRCRECRPGGSCLPCGGDMTFDPGPRDLVEPWVAIRGLRPDVTYTFEVAALNGVSTLATGPPPFEPVNVTTDREVPPAVSDIRVTRSSPSSLILSWAIPRAPSGAVLDYEVKYHEKGAEGPSSVRFLKTSENRAELRGLKRGASYLVQVRARSEAGYGPFGQEHHSQTQLDESESWREQLALIAGTAVVGVVLVLVVVIIAVLCLRKQSNGREVEYSDKHGQYLIGHGTKVYIDPFTYEDPNEAVREFAKEIDVSYVKIEEVIGAGEFGEVCRGRLKAPGKKESCVAIKTLKGGYTERQRREFLSEASIMGQFEHPNIIRLEGVVTNSVPVMILTEFMENGALDSFLRLNDGQFTVIQLVGMLRGIASGMRYLAEMSYVHRDLAARNILVNSNLVCKVSDFGLSRFLEENSSDPTYTSSLGGKIPIRWTAPEAIAFRKFTSASDAWSYGIVMWEVMSFGERPYWDMSNQDVINAIEQDYRLPPPPDCPTSLHQLMLDCWQKDRNARPRFPQVVSALDKMIRNPASLKIVARENGGASHPLLDQRQPHYSAFGSVGEWLRAIKMGRYEESFAAAGFGSFEVVSQISAEDLLRIGVTLAGHQKKILASVQHMKSQAKPGAPGGTGGPAQQF
B3: 4239139: IMAGE clone protein: Fgfr4, fibroblast growth factor receptor 4 (protein, UniProt Q03142 17-799, looked up)
Fibroblast growth factor …: LSLEASEEMEQEPCLAPILEQQEQVLTVALGQPVRLCCGRTERGRHWYKEGSRLASAGRVRGWRGRLEIASFLPEDAGRYLCLARGSMTVVHNLTLLMDDSLTSISNDEDPKTLSSSSSGHVYPQQAPYWTHPQRMEKKLHAVPAGNTVKFRCPAAGNPMPTIHWLKDGQAFHGENRIGGIRLRHQHWSLVMESVVPSDRGTYTCLVENSLGSIRYSYLLDVLERSPHRPILQAGLPANTTAVVGSDVELLCKVYSDAQPHIQWLKHVVINGSSFGADGFPYVQVLKTTDINSSEVEVLYLRNVSAEDAGEYTCLAGNSIGLSYQSAWLTVLPEEDLTWTTATPEARYTDIILYVSGSLVLLVLLLLAGVYHRQVIRGHYSRQPVTIQKLSRFPLARQFSLESRSSGKSSLSLVRGVRLSSSGPPLLTGLVNLDLPLDPLWEFPRDRLVLGKPLGEGCFGQVVRAEAFGMDPSRPDQTSTVAVKMLKDNASDKDLADLVSEMEVMKLIGRHKNIINLLGVCTQEGPLYVIVECAAKGNLREFLRARRPPGPDLSPDGPRSSEGPLSFPALVSCAYQVARGMQYLESRKCIHRDLAARNVLVTEDDVMKIADFGLARGVHHIDYYKKTSNGRLPVKWMAPEALFDRVYTHQSDVWSFEILLWEIFTLGGSPYPGIPVEELFSLLREGHRMERPPNCPSELYGLMRECWHAAPSQRPTFKQLVEALDKVLLAVSEEYLDLRLTFGPFSPSNGDASSTCSSSDSVFSHDPLPLEPSPFPFSDSQTT
B4: 4238984: IMAGE clone protein: Kdr, kinase insert domain protein receptor (protein, UniProt P35918 20-1345, looked up)
Vascular endothelial growth …: ASVGLPGDFLHPPKLSTQKDILTILANTTLQITCRGQRDLDWLWPNAQRDSEERVLVTECGGGDSIFCKTLTIPRVVGNDTGAYKCSYRDVDIASTVYVYVRDYRSPFIASVSDQHGIVYITENKNKTVVIPCRGSISNLNVSLCARYPEKRFVPDGNRISWDSEIGFTLPSYMISYAGMVFCEAKINDETYQSIMYIVVVVGYRIYDVILSPPHEIELSAGEKLVLNCTARTELNVGLDFTWHSPPSKSHHKKIVNRDVKPFPGTVAKMFLSTLTIESVTKSDQGEYTCVASSGRMIKRNRTFVRVHTKPFIAFGSGMKSLVEATVGSQVRIPVKYLSYPAPDIKWYRNGRPIESNYTMIVGDELTIMEVTERDAGNYTVILTNPISMEKQSHMVSLVVNVPPQIGEKALISPMDSYQYGTMQTLTCTVYANPPLHHIQWYWQLEEACSYRPGQTSPYACKEWRHVEDFQGGNKIEVTKNQYALIEGKNKTVSTLVIQAANVSALYKCEAINKAGRGERVISFHVIRGPEITVQPAAQPTEQESVSLLCTADRNTFENLTWYKLGSQATSVHMGESLTPVCKNLDALWKLNGTMFSNSTNDILIVAFQNASLQDQGDYVCSAQDKKTKKRHCLVKQLIILERMAPMITGNLENQTTTIGETIEVTCPASGNPTPHITWFKDNETLVEDSGIVLRDGNRNLTIRRVRKEDGGLYTCQACNVLGCARAETLFIIEGAQEKTNLEVIILVGTAVIAMFFWLLLVIVLRTVKRANEGELKTGYLSIVMDPDELPLDERCERLPYDASKWEFPRDRLKLGKPLGRGAFGQVIEADAFGIDKTATCKTVAVKMLKEGATHSEHRALMSELKILIHIGHHLNVVNLLGACTKPGGPLMVIVEFCKFGNLSTYLRGKRNEFVPYKSKGARFRQGKDYVGELSVDLKRRLDSITSSQSSASSGFVEEKSLSDVEEEEASEELYKDFLTLEHLICYSFQVAKGMEFLASRKCIHRDLAARNILLSEKNVVKICDFGLARDIYKDPDYVRKGDARLPLKWMAPETIFDRVYTIQSDVWSFGVLLWEIFSLGASPYPGVKIDEEFCRRLKEGTRMRAPDYTTPEMYQTMLDCWHEDPNQRPSFSELVEHLGNLLQANAQQDGKDYIVLPMSETLSMEEDSGLSLPTSPVSCMEEEEVCDPKFHYDNTAGISHYLQNSKRKSRPVSVKTFEDIPLEEPEVKVIPDDSQTDSGMVLASEELKTLEDRNKLSPSFGGMMPSKSRESVASEGSNQTSGYQSGYHSDDTDTTVYSSDEAGLLKMVDAAVHADSGTTLRSPPV

Each molecule was assayed on pEY (assay: In vitro kinase library screen: activity towards pEY). Details: 5 ul of expressed protein.
Format: biochemical
Protocol: Proteins were produced in an in vitro transcription and translation reaction. […] The unbound components of the reaction containing endogenous kinases were removed by three washes with TT-buffer (25 mM Tris-HCl buffer pH 7.4 and 0.004% Triton), two five minutes washings with high-salt wash buffer (25 mM Tris-HCl buffer pH 7.4, 0.004% Triton, 1M NaCl and 5 mM DTT) and 3 more washes with TT-buffer. To these immobilized and purified proteins a tyrosine kinase substrate, 5 nM pEY (poly Glu-Tyr, Sigma, MO), was added in a 50 μl reaction solution containing 5 mM MgCl2, 5 mM MnCl2, 100 μM ATP, 25 mM Tris-HCl buffer pH 7.4, 0.05 mM Na3VO4, 0.004% TritonX-100, 2 mM DTT and EDTA-free protease inhibitor (Roche Molecular Biochemicals). This mixture was incubated with shaking at room temperature overnight to allow phosphorylation of the pEY substrate by the immobilized kinases. Following this incubation, 45 μl of this mixture was transferred to a streptavidin or avidin-coated NPT IPR plate coated with biotinylated anti-phosphotyrosine antibody (PY20, Zymed labs, CA) followed by incubation for 30 minutes at room temperature to allow the binding of the phosphorylated pEY substrate to the PY20 coated NPT plate. Following this binding step, 50 ng Sulfo-TAG labeled anti-phosphotyrosine in buffer containing 25 mM Tris-HCl buffer pH 7.4, 5 mM MgCl2, 0.05 mM Na3VO4, 0.004% TritonX-100, 2 mM DTT and 0.05% IgG was added followed by incubation at room temperature for 30 mm. The unbound reagents were removed by one time washing with water, and the TAG label was detected in presence of 150 μl IPR assay buffer (0.4 mM Gly-Gly buffer, pH 7.8, 1 mM EDTA, 0.1 M TPA). The ECL signals were measured using an imaging plate reader.
(§1) Proteins were produced in an in vitro transcription and translation reaction as described in the Materials and Methods. […] The reaction was stopped by mixing with BB2 buffer. Biotinylated proteins from 50 μl of the mixture (representing 0.5 μl to 5 μl of TnT reaction) were immobilized onto streptavidin or avidin coated NPT-IPR plates by shaking at room temperature for 45 min. The activity of the immobilized protein towards pEY or autophosphorylation was further assayed by the methods described in examples 7 and 8.

B1 was tested. Which HTS signal did it give?
The HTS signal was 427,178.

Which HTS signal does the source give for B2 here?
Its HTS signal is 7,357.

Which HTS signal does the source give for B3 here?
The HTS signal was 7,343.

With B4 as the molecule, how does the HTS signal read?
Its HTS signal is 107,459.

Each molecule was assayed on autophosphorylation (phosphotyrosine) (assay: In vitro kinase library screen: autophosphorylation). Details: not given.
Format: biochemical
Protocol: Proteins were produced from DNA plasmids of Mock Luciferase, Promega, tyrosine kinase clone Spleen Tyrosine kinase (SYK, IMAGE ID# 3870426) and Eph receptor-A7 (EphA7, IMAGE ID# 3991628) (Incyte Genomics, CA) and immobilized on streptavidin or avidin coated NPT-IPR plates as described in the Example 7. To promote autophosphorylation in these immobilized and purified proteins, Mn++ ions were added in a 50 μl reaction containing 5 mM MgCl2, 5 mM MnCl2, 100 μM ATP, 25 mM Tris-HCl buffer pH 7.4, 0.05 mM Na3VO4, 0.004% TritonX-100, 2 mM DTT and EDTA-free protease inhibitor (Roche Molecular Biochemicals). This mixture was incubated with shaking at room temperature overnight to allow autophosphorylation. Following this incubation, wells were washed 2 times with TT-buffer and 2 times with water. Following this step, 50 ng Sulfo-TAG labeled anti-phosphotyrosine in buffer containing 25 mM Tris-HCl buffer pH 7.4, 5 mM MgCl2, 0.05 mM Na3VO4, 0.004% TritonX-100, 2 mM DTT and 0.05% IgG in a final volume of 50 μl was added followed by incubation at room temperature for 45 min. The unbound reagents were removed by one time washing with water, and the TAG label was detected in presence of 150 μl IPR assay buffer (0.4 mM Gly—Gly buffer, pH 7.8, 1 mM EDTA, 0.1 M TPA). The ECL signals were measured using an imaging plate reader.
as §1

How did the ECL signal turn out when B1 was run?
Its ECL signal is 599,680.

How did the ECL signal turn out when B2 was run?
Its ECL signal is 28,275.

Which ECL signal does the source give for B3 here?
Its ECL signal is 12,588.

For B4, which ECL signal is on record?
The ECL signal was 61,364.

Reference: patent US7063946B2, “Methods, reagents, kits and apparatus for protein function analysis” (Meso Scale Technologies, LLC., priority 2001, dated 2006)
